Results reported in publication PMC3161508 (Advances in experimental medicine and biology, 2010).

Molecular target: the molecule itself
Assay: non-reducing SDS-PAGE and Western blotting

B1: cone CNG channel β subunit CNGB3 (natural protein, mouse (endogenous in retina), UniProt Q9JJZ9 1-694, looked up)
chain: MLKSLTVKFNKVNPMEGRMEKKLCPNLSSLSQPTIAQGDNQSEKEPLRSRTPITFEKSHSKEDNSTGENSLRDFTPNPDPECRAELTRTMAEMEKTRTGKERPVSFKTKVLETSIINEYTDAHLHNLVERMRERTALYKKTLTEEENFPEVEASSQTAMSTNISPKQENNSKLKEHQDTFSFKPQRVPVKEHLRRMILPRSIDSYTDRVYLLWLLLVTIAYNWNCWLLPVRLVFPCQTPDNKNYWIITDIVCDIIYLCDILLIQPRLQFVRGGEIIVDSNELKRNYRSSTKFRMDVASLLPFEVLYIFFGVNPIFRANRILKYTSFFEFNHHLESIMDKAYVYRVIRTTGYLLFLLHINACVYYWASDYEGIGSTKWVYNGEGNKYLRCFYWAVRTLITIGGLPEPQTSFEIVFQFLNFFSGVFVFSSLIGQMRDVIGAATANQNYFQACMDHIIAYMNKYSIPQSVQYRVRTWLEYTWNSQRILDESNLLENLPTAMQLSIALDINFSIIDKVELFKGCDTQMIYDLLLRLKSTIYLPGDFVCKKGEIGKEMYIIKHGEVQVLGGPDGAQVLVTLKAGSVFGEISLLAKGGGNRRTADVVAHGFANLLTLDKKTLQEILLHYPTSKKLLMKKAKILLSQKGKTTQAIPARPGPAFLFPPKEETPRMLKVLLGNTGKVDLGRLLKGKRKTTTQK
  stoichiometry N: 2
